In PMC8064030:

Target: HIV-1 CA carrying the A92E substitution (HIV-1)
Assay: cryo-EM structure

## HIV-1 CA carrying the A92E substitution (natural protein)
  stoichiometry N: 6
